Results as given in patent publication US20250011363A1, “OPTIMIZED SHORTENED PEPTIDE THAT BINDS TO ACETYLCHOLINE RECEPTOR, AND USE THEREOF” (SKINMED CO., LTD., priority 2021, published 2025).

B1: 5mer-448 (peptide)
peptide: RQIRK
B2: 5mer-436 (peptide)
peptide: RVFYK
B3: 5mer-427 (peptide)
peptide: RGLYR
B4: 5mer-433 (peptide)
peptide: KWRCR
B5: 5mer-133 (peptide)
peptide: KGQRK
B6: 5mer-445 (peptide)
peptide: RLFTR
B7: 5mer-128 (peptide)
peptide: RGVCR
B8: 5mer-442 (peptide)
peptide: KVRLR
B9: 5mer-135 (peptide)
peptide: RRLLR
B10: 5mer-435 (peptide)
peptide: KLRQR
B11: 5mer-132 (peptide)
peptide: RVRCK
B12: 5mer-146 (peptide)
peptide: RWFTK
B13: 5mer-136 (peptide)
peptide: RRIYK
B14: 5mer-431 (peptide)
peptide: KVQLK
B15: 5mer-447 (peptide)
peptide: KGYYK
B16: 5mer-141 (peptide)
peptide: RWQQR
B17: 5mer-430 (peptide)
peptide: KWRTK
B18: 5mer-131 (peptide)
peptide: KLRRR
B19: 5mer-444 (peptide)
peptide: KQQYR
B20: 5mer-432 (peptide)
peptide: RQVRR
B21: 5mer-130 (peptide)
peptide: RRFRK
B22: 5mer-134 (peptide)
peptide: RQFSK
B23: 5mer-438 (peptide)
peptide: RVRSR
B24: 5mer-145 (peptide)
peptide: RSFSK
B25: 5mer-446 (peptide)
peptide: RGLQK
B26: 5mer-137 (peptide)
peptide: KGVSK
B27: 5mer-143 (peptide)
peptide: KGQQR
B28: 5mer-429 (peptide)
peptide: KSQYK
B29: 5mer-443 (peptide)
peptide: RGFTK
B30: 5mer-148 (peptide)
peptide: RSQTK
B31: 5mer-428 (peptide)
peptide: RQFLK
B32: 5mer-437 (peptide)
peptide: RVRLR
B33: 5mer-144 (peptide)
peptide: KRFSK
B34: 5mer-440 (peptide)
peptide: RQVTK
B35: 5mer-441 (peptide)
peptide: KLIRK
B36: 5mer-142 (peptide)
peptide: RQYSR
B37: 5mer-434 (peptide)
peptide: RVLQK
B38: 5mer-129 (peptide)
peptide: KSLLK
B39: 5mer-147 (peptide)
peptide: RRYQK
B40: 5mer-439 (peptide)
peptide: KRVTR
B41: 5mer-140 (peptide)
peptide: KWRLR
B42: 5mer-139 (peptide)
peptide: RLQYK
B43: 5mer-138 (peptide)
peptide: RQRCR
B44: 6mer-2-933 (peptide)
peptide: RYSMKR
B45: 6mer-2-923 (peptide)
peptide: RCCAKK
B46: 6mer-2-918 (peptide)
peptide: KNWMRK
B47: 6mer-2-907 (peptide)
peptide: RTMNRR
B48: 6mer-2-909 (peptide)
peptide: RCNPRR
B49: 6mer-2-919 (peptide)
peptide: KAKHKR
B50: 6mer-2-915 (peptide)
peptide: KNCWKR
B51: 6mer-2-908 (peptide)
peptide: KYKKKR
B52: 6mer-2-900 (peptide)
peptide: RFSAKK
B53: 6mer-2-928 (peptide)
peptide: KFCIRR
B54: 6mer-2-925 (peptide)
peptide: RASVKR
B55: 6mer-2-922 (peptide)
peptide: KDNVRR
B56: 6mer-2-924 (peptide)
peptide: RFDHKK
B57: 6mer-2-920 (peptide)
peptide: RMTIKK
B58: 6mer-2-934 (peptide)
peptide: KYKDRR
B59: 6mer-2-916 (peptide)
peptide: KTTEKR
B60: 6mer-2-910 (peptide)
peptide: RHEHRR
B61: 6mer-2-917 (peptide)
peptide: RFCWRK
B62: 6mer-2-931 (peptide)
peptide: RYCFKR
B63: 6mer-2-914 (peptide)
peptide: KDDIKK
B64: 6mer-2-921 (peptide)
peptide: RPKAKK
B65: 6mer-2-905 (peptide)
peptide: RPKERR
B66: 6mer-2-911 (peptide)
peptide: KMSGKR
B67: 6mer-2-903 (peptide)
peptide: KKNPKK
B68: 6mer-2-906 (peptide)
peptide: KYCDKK
B69: 6mer-2-932 (peptide)
peptide: RIPWRR
B70: 6mer-2-902 (peptide)
peptide: KPDVRK
B71: 6mer-2-901 (peptide)
peptide: RYWDRK
B72: 6mer-2-913 (peptide)
peptide: KFKNRR
B73: 6mer-2-926 (peptide)
peptide: RPTVKR
B74: 6mer-2-912 (peptide)
peptide: RAPIRR
B75: 6mer-2-929 (peptide)
peptide: KNHMRK
B76: 6mer-2-899 (peptide)
peptide: KKMVKR
B77: 6mer-2-904 (peptide)
peptide: KCCFKK
B78: 6mer-2-927 (peptide)
peptide: RFNPRK
B79: 6mer-2-930 (peptide)
peptide: RTWIKR

molecular target: acetylcholine receptor; experiment: SPR, AchR immobilized on CM5 chip, peptide at 10 µM

Binding affinity (RU) | Binder
74 | B1
60 | B2
87 | B3
73 | B4
84 | B5
77 | B6
56 | B7
61 | B8
64 | B9
69 | B10
83 | B11
52 | B12
75 | B13
81 | B14
76 | B15
50 | B16
80 | B17
72 | B18
65 | B19
52 | B20
80 | B21
61 | B22

Binding affinity (RU) | Binder
76 | B23
62 | B24
53 | B25
77 | B26
64 | B27
63 | B28
80 | B29
50 | B30
86 | B31
50 | B32
58 | B33
57 | B34
53 | B35
52 | B36
74 | B37
63 | B38
66 | B39
65 | B40
69 | B41
73 | B42
71 | B43

molecular target: acetylcholine receptor; experiment: SPR, receptor immobilised on chip, peptide at 10 uM

Binding affinity (RU) | Binder
34 | B44
33 | B45
35 | B46
25 | B47
42 | B48
27 | B49
29 | B50
33 | B51
11 | B52
28 | B53
23 | B54
41 | B55
28 | B56
26 | B57
26 | B58
22 | B59
21 | B60
23 | B61

Binding affinity (RU) | Binder
29 | B62
25 | B63
22 | B64
26 | B65
21 | B66
40 | B67
40 | B68
35 | B69
26 | B70
34 | B71
25 | B72
31 | B73
27 | B74
26 | B75
13 | B76
30 | B77
39 | B78
37 | B79
